Results reported in the DeepSol protein solubility set.

Assay: soluble on expression in E. coli; label from the status in PepcDB or PDB records

Sequence | soluble on expression in E. coli
MGSDKIHHHHHHMRHAYRQFGPGTLYTVRLLRALDYLWRHLDEPLLLDRLAEEACFSRFHFHRLYRNLMGETVMESRQRMLLHRAAGELGRADRPLASVAVRAGFSSSAAFIRAFAGRYGETPGRYRQRRLMFLNQRERTMRQVEIVERDAVKVLMRHHRGPYMEIGKAFDALRAVQGPQQGVGAPSRSFGLYLDDQAQTPAADCRSIACATVPAFMEGKAMDGFEWGSIPAGRYAAVLHTGPYSELGECWDWLYRHWLPASGEMPGDTPCVEEYLNAPYDTPPAELKTLLLLSLA | not soluble
MGSDKIHHHHHHMRFIAGPLNKQLLQNLLGEVIESCTRVRAAVAYASRDNMKLFEACAQHLKPLEFFGRYDHTVAVDPAVLKWFLDKASPNYDCKLVPDILHAKIIWWVDAGAYIGSANLSDRAWISNIEAGTFLPHDELVETGMERELQRFFEEVDDRARPLTKEIYQEQLRLADRRSELSKREYGLEQQFDKDRLLPKNHGLVFVDTKRSSEKRFQKFEQDWNDTLQVMRSIASRVAAPGAKPAWIDASVAPGVQADQFLHAYYYKQVKDGNRHPYEEFFDRNSKNPELALRDALEWWHDADFDHSFEERTIYEWSPRLRELLARDRILKLTEQEFVDAVSRVHAIRDHAIKQENEHLGLPDRPQAGDDKVEKFGEWLWRQRSREGRTVLELLNYVVWGNGSVSARLWNAIRSDDWAIPHIGLSSLGEIVGWARPDEYPPRNMRTSKGLRALGYNVRIGV | not soluble
MKIIILHGLYMHGLVMQPLSQKLRKLGYETQVLSYNTVAIDESSLFDSIDHSLNPLTANVLVGHSLGGLMIKRYLANRKPTTSLISHVVAIGSPLKGASIVGRIQDLGLGAILGNSPHHGLNKHHDAWAFPQKLGSIAGTVPIGARPLLIRNDNTMSDGTVTVEETRLDGMQDHIEVKQTHTSLIYNTFVPQQIDHFIRTDYFCR | not soluble
MVNRLINSRSPYLRKAANQPVEWFEWGEEAFAKAKKEDKPILLSIGGVWCHWCHVMAKESFENEEIAEMINRNFVAIKVDRDERPDIDKRYQEFVMATTGSGGWPLTVFLTPDGKPFFGGTYFPPEDRYHLPGFKTVLRKIAEMWRHDRERLLKSAEELTEAVRRYAE | not soluble
MDDYMVLRMIGEGSFGRALLVQHESSNQMFAMKEIRLPKSFSNTQNSRKEAVLLAKMKHPNIVAFKESFEAEGHLYIVMEYCDGGDLMQKIKQQKGKLFPEDMILNWFTQMCLGVNHIHKKRVLHRDIKSKNIFLTQNGKVKLGDFGSARLLSNPMAFACTYVGTPYYVPPEIWENLPYNNKSDIWSLGCILYELCTLKHPFQANSWKNLILKVCQGCISPLPSHYSYELQFLVKQMFKRNPSHRPSATTLLSRGIVARLVQKCLPPEIIMEYGEEVLEEIKNSKHNTPRKKTNPSRIRIALGNEASTVQEEEQDRKGSHTDLESINENLVESALRRVNREEKGNKSVHLRKASSPNLHRRQWEKNVPNTALTALENASILTSSLTAEDDRGGSVIKYSKNTTRKQWLKETPDTLLNILKNADLSLAFQTYTIYRPGSEGFLKGPLSEETEASDSVDGGHDSVILDPERLEPGLDEEDTDFEEEDDNPDWVSELKKRAGWQGLCDR | soluble
MKAFDIMKASQIACCFEVGSFKPGNVHKNRDYDDIKYHHFISSGIAFGDVIHQACLEKNNIGNFIKKGVIESKKWSPTNANLGIIMLHMPIAIAASNLDKFSESALKKETEKIIKNTTVQDAIDVYRAIEIALAFVNAPENGPDLKSKDAKDELIEKNLTLYDVFKISSTWDSISNEWTENFKISYKGYNLIKEYYEKYNNINIAVTKTFINLLSNYPDTLIARKKGIDVSKMVSEKAKEVLNNFNEESVLEFDKFLSKEGNKLNPGTTADLIASSLLIFLLDRISNEKTILY | not soluble
MDAKVYVGGLPSDATSQELEEIFDRFGRIRKVWVARRPPGFAFVEYDDVRDAEDAVRALDGSRICGVRARVELSTGQRRGGGGRGGGFGGRGGGGRDRSPYRGDRGRSRSRSRDRGRDRSRDRSRDRSRDRSRDRSRERSRERERTRSRSRSPQERDRSHSKSRSRSRSRSRSRSASPH | soluble
REGVFRAERQRKAGELIISREPLTGLDDAARSQALLALVRRKGLELLPWTPELRQWQARVALLRSLDIDKSATSEWPDLSDAQLLATLENWLMPYLGKVT | not soluble
MASISRFRGCLAGALLGDCVGAVYEAHDTVSLASVLSHVESLEPDPGTPGSARTETLYYTDDTAMTRALVQSLLAKEAFDEVDMAHRFAQEYKKDPDRGYGAGVITVFKKLLNPKCRDVYEPARAQFNGKGSYGNGGAMRVAGISLAYSSVQDVQKFARLSAQLTHASSLGYNGAILQALAVHLALQGVSSSEHFLEQLLGHMEELEGDAQSVLDAKELGMEERPYSSRLKKVGELLDQDVVSREEVVSELGNGIAAFESVPTAIYCFLRCMEPHPEIPSTFNSLQRTLIYSISLGGDTDTIATMAGAIAGAYYGMEQVPESWQQSCEGFEETDVLAQSLHRVFQES | soluble
MGSDKIHHHHHHMSESLPPDAQRSPSYRAGVGLKAEHYRTILESQPDIGFFEVHAENYMGAGGPPHRFLSAIRESYPLSLHGVGLSIGADRPLDRDHLQRLKELIARYSPALFSEHLAWSSHDCGFLNDLLPVPYTAESLTRIVDHIDQVQEVLGRQMLLENPSTYLAFEESTYPEIDFIAAVVRRTGCGLLLDVNNVYVASINQQWDPFAYIDEYPLAAVQEIHLAGHAEETDEKARPLLIDSHDRHVADVVWDLYARAIRGTGPIPTLIEWDANIPDWPTLKAEAGRADAVVQAATQPASVDHVTIRSQFDMTRRRLKEAQTL | not soluble
MNIAIGTTQDRALYEDALRVRRLVFIEEQNVPEDEEIDAFEDDSFHLVLYDGQTPVGAGRLRFIDEGVGKIERICVLPSYRGRGAGRMVMEAIEQLAKTKGAKTAKLNAQTHAEPFYQKLGYTTVSGVFMDAGIPHVTMVKSLE | soluble
MSLADIYAFPTGESNDGRPVRPQGVPDEVWAAVESVSTMKRIHDVRYREIPVPSTLADYGIGVEFEAGERALGDAFSAGLGSDAEPRIATGWIMMLYAHELRIDWDSNWRCVAFARLPLETAENDSLTPGMYWDDMCDYFDGIEPDSVSGTVTVTQNTAFGSMAGSTSAGCEIRVSWTPLDGTGPDGTMDAGAQVRSWAAFIRSTIRFEEDDASEGHHHHHH | soluble
MSLKKDIIILGIESSCDDTSAAVVRNETMLSNVIAGQAVHKAYGGVVPELASRAHQQNIVPVVSEAIKRAGIRKEEIDAIAFTRGPGLLGSLLVGTSFAKGLSLSLGIPMLEVNHLHAHVLANFLREPGEESQHPSFPFLCLLVSGGNSQIILVRSPYDMEVIGQTIDDAAGEAFDKCAKVMGLGYPGGPIVNKLASEGNPDAFRFARPHVSGYDYSFSGLKTSFLYTLRDKLAEDPDFIEKNKADLCASLQHTVIDILMKKLRQAAKDHSIKQVALAGGVSANTGLRDAFHDHARRYGWTVFIPKFAYTTDNAAMVAISGYYKYLQGDFCPIDAVPFSRITVEGHHHHHH | soluble
MSQEQVEMIYAKTIEQILEMTGNATANFLPVLGVKSIEMAIGQMEEYLEMLKNLRVDYEKEPNLQSCMSPRLNDSMLIHRNRLARTSKSRLALYRTSPEIARFSRGSPDDIENENLSMSKIRSITEETSILDPTLCMDETTHQRGFLADVSDMNGTVRSRMPSFNFNHISPVPAEKTRRHSVLNVTTDFDVDLSSLCEPSQIEENSGQILFQNVLESALRTPNANNNTILLTDSEVTPVNISNLWNVKLRPGSNRKIDNGIRKEIQRQLACDSQL | not soluble
MYTDSNNRNFDEVNHQHQQEQDFNGQSKYDYPQFNRPMGLRWRDDQRMMEYFMSNGPVETVPVMPILTEHPPASPFGRGPSTERPTTSSRYEYSSPSLEDIDLIDVLWRSDIAGEKGTRQVAPADQYECDLQTLTEKSTVAPLTAEENARYEDLSKGFYNGFFESFNNNQYQQKHQQQQREQIKTPTLEHPTQKAELEDDLFDEDLAQLFEDVSREEGQLNQLFDNKQQHPVINNVSLSEGIVYNQANLTEMQEMRDSCNQVSISTIPTTSTAQPETLFNVTDSQTVEQWLPTEVVPNDVFPTSNYAYIGMQNDSLQAVVSNGQIDYDHSYQSTGQTPLSPLIIGSSGRQQQTQTSPGSVTVTATATQSLFDPYHSQRHSFSDCTTDSSSTCSRLSSESPRYTSESSTGTHESRFYGKLAPSSGSRYQRSSSPRSSQSSIKIARVVPLASGQRKRGRQSKDEQLASDNELPVSAFQISEMSLSELQQVLKNESLSEYQRQLIRKIRRRGKNKVAARTCRQRRTDRHDKMSHYI | not soluble
MATEIDINRIQKDIFIEHKGEPYRVLDYEHVKPGKGQAFVRVKAKNMLTGNVTELTFKASDRIPLADFEQVYATYSYNDGENYYFMNTQTYDMIAVPKEKIEEEAKFLKEGMEVIVFLYKGQPIGIELPKHVELQVVETEPAFKGDTQAGGTKPAKLETGAVIQVPFFVKEGDIVKVDTRTGSYVERVKEAK | soluble
MLISLIVPIYNVEGFLPRCLDSIIKQEYQNLEIVLVNDGSTDQSGLICDQYAEKDERFIVFHKENGGVSSARNVGLNKANGNYIGFVDPDDWIEPNMINKLYELIIQHKADIAMCGYVKEDINGLLISRPVELSTKILNKEDTLNSILNPNDFRGFLCNKLFSVDLFRKKNLYLDEDIHFCEDLLFCCQAILESKQIVYDSTPYYHYIIHNNNASKSNFSFKKLTALNSLDNIINLLNDQKGIELEQYKNYYMHLNISLLMNGIHEDKIRRQDKERLKKNLYKFKINDLTSKFVKFSCVLARLNLNLYYFIWKNAKPSN | not soluble
MGSDKIHHHHHHMPLTNHTPEDRVQDIFDHIAPQYDQMNSVISLGTHHWWRQRVMQAMTLHAGDFALDVCCGTGDWTIALAQAVGPAGHVVGFDFSGVMLQHATTKVRQAQLDDRITLRQGDAMQLPYPDNYFNVVTIGFGLRNVPDATQVLREMARVVKPGGQVVCLETSQPTNPLVHAGWQVYFGHVVPLMGRLAHHYQAYNYLQSSTHHFVSAKELSRLFTAAGLTQVHYDLFNLGAAAVHWGRKPY | not soluble
MSLKRIAIILLTLTSILFVQHVPEGLAKASNELSLEEKYEQRLTLYEKMEAITNVPWYYLAAVDTYERGLRRAQKDRPAEEGLIAIYFSPQQWVGPLNPDLEDTNPLSISMFNGVGLDGNGDGVADRNNDEDVLYTFARYLESYGFKEEDFRIALWEYYQREQSVNIIYGHANVYKTFKTLDLDDHTFPLPLHHNYSYRSTWGDRRGWGGRRIHEGTDIFANYNVPVMATAYGIVEIKGWNKYGGWRIGVRDLDNVYHYYAHLSGFEKGVEKGTVVAPGDVIGYVGSSGYGKPGTQGKFPPHLHYGMYRDNGYTEWSFDPYPSLKSWERKAYQERKKKKEGHHHHHH | soluble
MGSDKIHHHHHHMYVLHICHSYYPPFLDCARQYAALFKDSPYKVVTVYLTGKPDPEVERGSASDEVVFLGYSSKQVKGLKLGAIAKIRQLVKSRNFAFCIAHRAKPTYVALLATGLPVVSVHHNYNDYGRFTRRILVNFYRKRILMLCVSNSVRDEMRQHLKHWPAEQIQTLYNRIDVDAVRQSLLPRQEARRLLELEDDTYVIANVGRLHRDKDQATLLRGFAQALPELPANTLLLILGKGPLEQELKALASELGIAGNVRFAGQVPEARRYFRAFDLFVLTSDHEPFGMVLLEAMAAELPIICSDSGGGAEVVNGYGDLFSLGNPHHLSSLLIARSRLPQAANSSADILHEKFSDAAARKHFFMLTFIKDLLFI | not soluble
MPVTLSFGNHQNYTLNESRLAHLLSADKEKAIHMGGWDKVQDHFRAEKKDHALEVLHSIIHGQGRGEPGEMEVNVEDINKIYAFKRLQHLACPAHQDLFTIKMDASQTQFLLMVGDTVISQSNIKDILNISDDAVIESMSREERQLFLQICEVIGSKMTWHPELLQESISTLRKEVTGNAQIKTAVYEMMRPAEAPDHPLVEWQDSLTADEKSMLACINAGNFEPTTQFCKIGYQEVQGEVAFSMMHPCISYLLHSYSPFSEFKPTNSGFLKKLNQDYNDYHAKKMFIDVILEKLYLTHERSLHIGKDGCSRNILLT | not soluble
